Assay: label from the status in PepcDB records

Row | Sequence | protein production
1 | MRPADRCRSPTGRPATGRHRPDIFTNTVEWDAFEAAPLYGDTTSSFVCQSRMTGEYFPKMGGHAMKNRLACTAVIAAIFCTTSASAQKLPEIWEVTKLVPGSAFHGVHGLGIDKAGHLFAGSVAGAMLYEVDIASGTAKVAIPAPIGMADDIAFAPDGTMAWTGFLAGDLYSRKGDGPIKKLASGLPGINSLAFRKDGRLYATTVFLGDTLYEIDVEGVKPPRQIMEKMGGLNGFEFGPDDKLYGPLWFKGQVAKVDVDKAELTVVADGFKVPAAVNFDSKGNLWVVDTALGQLVRVDPKSGAKTMVAQLKPSLDNLAIDEKDRIYVSNMADNGIQEVDPASGQAKQIIIGKLALPGGIGVTSENGKDTIHVADVFAYRTVDGTTGEVTEKARMHAAGVTLEYPMSATAKGNDVILSSWFTGTVQVIDNKTGATRDMLHDFKAPHDAIVLEDGSILVAELGTKSLVRVSGEHGKDRTTLIGDLEGPVGLVAGSRGEVYVTEAFAGVVSKIEQNGEKTVLVKELKMPEGLARTSDGKLIVAEVGARRLIEITPEDGKITEIAADLPIGLAGAPGGLPTHIPTGVAIGATGVIYFSSDIENAIYKAVKK | failed
2 | MRPALTTVQVFALLAVALSTLVFAASFAVDTTSARPEPVAFDNTVQRGVTAADEQIARNRSISIPRAQVFYSQYRYVVGYVGIGQAVTALTEPGHEQQFGYPLAVYVSDYSDRPVRCGDDGSLRTATPPDWVEANQAHYVVDGSARVPSGPAVVPFADRDDAAAFTETCGGQIIDWETLKTYSFDLKQAAAVREQVGPRRSGADATVQAARQHRNRPVSVEVGTDAPTVQAAVDAAPPNTTVVVPAGTYNEQVMIDKPLSLSGPGATLDGGGNGTVVTVTADRVGVTGFEITGIGNTTVGDPTQSNDSAWDATVTTAYGNSDAAVTGRNASGLYVANITVETPASGVVLRRTPGAVVENVTVNGTADWQDGFMGVIGMHRPIVVQDSVFNGGRDGVYLHRADGTAVRNNAFRDNRFGVHLMYTSRSLVADNVARGQEYAGVVVMTNPVANAIVGNDVRHSGSGIMLAGSRSYIAHNVVVDTTQAMSTNADRSLYEHNVLYGNDIGVRASTVVPSNIVTDNDFIANDRHAISGPGPLRVYTHDGRGNYWSGAYDLTGGTGPVLAQSYSPTDSVDRRLHQTDAAVVLRAAPSVRGLRALRGTTPGFRRGSIVDRAPLADPANPETVRRLRNETSMEGAA | failed
3 | MRPGQELAGPGLRQPRTGVPRRRHRRLPRRHRPAIVSLPPSYGPSMPDAHPPPSPSKDRSFAARVQTGALVIIAFAVVLALLVQAQFILISLAVSVILFSLTSDAIALVARVRFGPVKIPNWLASSLALLLLAIVLLSLAAVIVSQVNTVLLTALSYSEQAPAAVAAIFSWLGKDAEEAVLSSLRAVEISGYLRTLAAQAGTLMQATVLVILFVGFLFAERVWFPVKLLNLFGNPDRARRVEEIVSSIMHRVNRYLLVKTLVSAITGLLVWGVAMAFGLDLAAPLGMLTFILNFIPSLGSIVATLLIVLVTFVQTVDVSTALSVLALVGVIQFICGNILDPMLMGRALQLSSFGIIISLAFWGAIWGIPGMFLSVPIMVGLMIVCAETEALRPIAVLLSREGLAAPMHPERPAAPPRAEPETETVASRRVGL | failed
4 | MRPRRWFAILVCLCCLVTAAWPAEVKGENKKKERLAVVTVDRVNVRQGPGVPYRPLANVHRGETYRLIDIKDGWLKIEWKKNKIGWIAASYAAPVREMEIVQEDRLRLRQEPGLDGRIIGHLAQGDQVIVIKEKGEWKQIVTKKAVGWVAASYLADAESPTGSRQTGVVTADSLNVRVAPSLDAERIGRLLHGERVEIVETKRDWYKIVTRSGLGGWVAAEYIEMKNGQAVGNPEEAVAESASPAAVDLVTIQGNGPRQYVKKWTRTPVQVLAGKTIVLDAGHGGKDGGAESVNGVTEKTLTMETAERLKEKLETYGARVVLTRVNDDYVPLSARVATARLYQADAFISLHYDSAEDEDASGITAYYYDRFADYGLAQSFQGPFSKLSALPFRGLAFGNYYVLRENERPSVLLELGYLSNRSDAEVVATDSYQETVTTAIVNAVRHYFQ | failed
